Test in all cases: cell-based or functional assay
Assay [1] deals with T1, GLP-1 acceptor (UniProt P43220 24-463, limits assumed).
Assay [2] has as its target T1, GLP-1 acceptor. The source holds these as a separate data set.
A further assay addresses GCG acceptor (UniProt P47871 26-477, limits assumed).
Another assay addresses FGFR1/KLB acceptor (UniProt P11362 22-822; Q86Z14 1-1044, limits assumed).
Another assay addresses T2, GIP acceptor (UniProt P48546 22-466, limits assumed).
T2 sequence (looked up): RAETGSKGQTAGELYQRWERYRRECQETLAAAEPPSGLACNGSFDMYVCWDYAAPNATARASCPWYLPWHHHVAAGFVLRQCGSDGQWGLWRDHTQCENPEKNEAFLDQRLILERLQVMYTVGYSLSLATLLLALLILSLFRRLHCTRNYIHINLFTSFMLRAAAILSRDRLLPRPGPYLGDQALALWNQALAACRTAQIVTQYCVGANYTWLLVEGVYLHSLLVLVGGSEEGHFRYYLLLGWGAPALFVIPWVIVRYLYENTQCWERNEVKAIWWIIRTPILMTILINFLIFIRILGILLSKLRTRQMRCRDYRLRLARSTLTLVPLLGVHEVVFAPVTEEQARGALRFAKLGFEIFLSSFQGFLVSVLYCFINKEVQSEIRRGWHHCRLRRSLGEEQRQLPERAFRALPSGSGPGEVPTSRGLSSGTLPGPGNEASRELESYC

Read-outs that look alike come from different tables or passages of the source. Ends that are not written are not given here.

Chain of FGFR1/KLB acceptor (P11362 22-822 limits assumed, chain 1 of 2): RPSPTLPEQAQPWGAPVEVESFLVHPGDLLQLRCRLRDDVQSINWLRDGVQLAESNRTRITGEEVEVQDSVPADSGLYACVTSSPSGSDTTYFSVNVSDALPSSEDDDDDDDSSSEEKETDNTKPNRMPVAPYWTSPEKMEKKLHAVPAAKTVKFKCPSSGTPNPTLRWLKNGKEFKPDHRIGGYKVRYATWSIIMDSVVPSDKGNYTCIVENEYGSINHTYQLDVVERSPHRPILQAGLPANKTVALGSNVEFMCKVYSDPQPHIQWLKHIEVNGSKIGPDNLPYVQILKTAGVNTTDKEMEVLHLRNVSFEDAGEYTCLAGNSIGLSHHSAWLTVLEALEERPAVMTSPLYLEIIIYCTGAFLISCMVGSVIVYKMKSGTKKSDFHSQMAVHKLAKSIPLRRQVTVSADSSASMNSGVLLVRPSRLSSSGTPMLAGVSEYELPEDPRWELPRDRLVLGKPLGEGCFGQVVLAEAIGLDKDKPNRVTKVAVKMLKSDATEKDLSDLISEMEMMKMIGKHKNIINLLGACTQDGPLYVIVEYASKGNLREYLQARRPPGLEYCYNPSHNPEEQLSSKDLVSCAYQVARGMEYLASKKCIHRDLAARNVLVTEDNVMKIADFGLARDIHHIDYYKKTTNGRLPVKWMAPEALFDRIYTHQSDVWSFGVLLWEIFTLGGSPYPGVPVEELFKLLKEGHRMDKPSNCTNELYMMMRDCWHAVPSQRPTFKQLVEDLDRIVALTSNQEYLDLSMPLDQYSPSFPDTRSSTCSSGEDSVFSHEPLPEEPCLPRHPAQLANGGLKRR
Chain of FGFR1/KLB acceptor (Q86Z14 whole entry, chain 2 of 2): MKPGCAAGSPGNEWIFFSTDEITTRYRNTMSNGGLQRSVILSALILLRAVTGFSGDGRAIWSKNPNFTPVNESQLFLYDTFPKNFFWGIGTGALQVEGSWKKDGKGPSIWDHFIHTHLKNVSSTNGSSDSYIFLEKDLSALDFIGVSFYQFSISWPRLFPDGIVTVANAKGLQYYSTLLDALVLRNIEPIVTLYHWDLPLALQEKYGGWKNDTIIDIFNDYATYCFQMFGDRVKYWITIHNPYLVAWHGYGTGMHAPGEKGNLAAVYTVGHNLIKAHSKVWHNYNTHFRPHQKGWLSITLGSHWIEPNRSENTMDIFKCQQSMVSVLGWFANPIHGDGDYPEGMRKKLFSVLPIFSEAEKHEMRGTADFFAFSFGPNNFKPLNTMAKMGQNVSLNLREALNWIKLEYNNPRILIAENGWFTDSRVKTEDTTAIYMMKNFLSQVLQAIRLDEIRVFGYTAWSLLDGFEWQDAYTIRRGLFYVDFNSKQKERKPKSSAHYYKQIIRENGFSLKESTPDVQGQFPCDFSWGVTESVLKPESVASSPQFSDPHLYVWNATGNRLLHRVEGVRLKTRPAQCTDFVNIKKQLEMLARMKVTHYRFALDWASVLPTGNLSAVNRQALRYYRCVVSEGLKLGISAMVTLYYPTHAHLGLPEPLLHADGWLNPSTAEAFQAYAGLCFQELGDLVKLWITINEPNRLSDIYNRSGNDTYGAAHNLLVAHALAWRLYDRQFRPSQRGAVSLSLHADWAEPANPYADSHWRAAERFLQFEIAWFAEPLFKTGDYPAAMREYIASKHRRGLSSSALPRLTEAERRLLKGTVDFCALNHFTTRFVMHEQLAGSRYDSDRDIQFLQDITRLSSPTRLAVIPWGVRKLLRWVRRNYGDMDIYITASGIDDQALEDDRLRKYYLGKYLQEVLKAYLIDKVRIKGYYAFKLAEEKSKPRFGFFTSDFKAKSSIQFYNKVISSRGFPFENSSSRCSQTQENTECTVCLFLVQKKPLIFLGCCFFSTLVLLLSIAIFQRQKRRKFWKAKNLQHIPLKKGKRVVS
Chain of GCG acceptor (P47871 26-477 limits assumed): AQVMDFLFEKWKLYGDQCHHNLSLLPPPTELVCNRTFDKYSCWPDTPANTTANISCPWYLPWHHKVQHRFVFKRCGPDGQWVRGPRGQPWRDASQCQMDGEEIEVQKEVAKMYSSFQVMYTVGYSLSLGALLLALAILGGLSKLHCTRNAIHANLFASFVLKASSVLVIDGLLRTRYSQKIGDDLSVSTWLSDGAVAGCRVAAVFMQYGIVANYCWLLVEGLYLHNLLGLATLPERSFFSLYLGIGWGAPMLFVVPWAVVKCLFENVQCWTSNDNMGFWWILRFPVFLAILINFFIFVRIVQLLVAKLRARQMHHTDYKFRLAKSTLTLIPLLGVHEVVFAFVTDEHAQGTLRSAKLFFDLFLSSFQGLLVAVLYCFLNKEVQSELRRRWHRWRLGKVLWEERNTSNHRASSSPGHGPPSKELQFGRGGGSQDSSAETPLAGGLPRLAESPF

B1: GLP#3 (peptide)
peptide: HGEGTFTSDVSEYLEKQAAKEFIAWLVNGR
Consider B1, for which the “EC50, cAMP accumulation assay; Transient cell line, n = 2” value (shortened to “EC50 … Transient cell line, n = 2”) in the assay with GLP-1 acceptor [1] was 2.25 pM.

B2: GLP#7 (peptide)
peptide: HGEGTFTSDVSEYLEKQAAKEFIAWLVRGRG
Regarding B2, in the assay with GLP-1 acceptor [1], the “EC50, cAMP accumulation assay; Transient cell line, n = 1” value (from here on “EC50, cAMP accumulation assay … n = 1”) was determined as 23 pM.

B3: GLP#10 (peptide)
peptide: HGEGTFTSDVSEYLEKQAAQEFIAWLVKGR
Consider B3, for which the “EC50 … Transient cell line, n = 2” value with GLP-1 acceptor [1] is 8.26 pM.

B4: GLP/GCG#15 (peptide)
peptide: HSQGTFTSDYSKYLDEQAAKEFIAWLMNT
Turning to B4, the entries for the “EC50, cAMP accumulation assay … n = 1” value in the assay with GLP-1 acceptor [2] and in the assay with GCG acceptor were 16 pM and 424 pM, respectively.

B5: FGF#1 (ligand)
chain: HPIPDSSPLLQFGGQVRQRYLYTDDAQQTEAHLEIREDGTVGGAADQSPESLLQLKALKPGVIQILGVKTSRFLCQRPDGALYGSLHFDPEACSFREEIRPDGYNVYQSEAHGLPLHLPGNKSPHRDPAPRGPARFLPLPGLPPALPEPPGILAPQPPDVGSSDPLSMVTGLEANRSPSYES
Consider B5, for which the “EC50, FGFR1/KLB functional assay; n = 2” value with FGFR1/KLB acceptor was determined as 21000 pM.

B6: GLP#1 (peptide)
peptide: HSEGTFTSDVSSYLEGQAAQEFIAWLVNGR
Regarding B6, the “EC50, cAMP accumulation assay … n = 1” value with GLP-1 acceptor [1] is 159 pM.

B7: GLP#6 (peptide)
peptide: HSEGTFTSDVSEYLEKQAAKEFIAWLVKGR
B7: the “EC50 … Transient cell line, n = 2” value with GLP-1 acceptor [1] was 1.5 pM.

B8: GLP/GCG#3 (peptide)
peptide: HGQGTFTSDYSKYLDEQAAKEFIAWLMNT
For the molecule B8, the “EC50, cAMP accumulation assay … n = 1” value is 13 pM in the assay with GLP-1 acceptor [2] and greater than 5000 pM with GCG acceptor.

B9: FGF#7 (ligand)
chain: HPIPDSSPLLQFGGQVRQVYLYTDDAQQTEAHLEIREDGTVGGAADQSPESLLQLKALKPGVIQILGVKTSRFLCQRPDGALYGSLHFDPEACSFREDLKEDGYNVYQSEAHGLPLHLPGNKSPHRDPAPRGPARFLPLPGLPPALPEPPGILAPQPPDVGSSDPLRLVEPSQLRSPSFE
For B9, in the assay with FGFR1/KLB acceptor, the “EC50, FGFR1/KLB functional assay; n = 2” value is 17700 pM.

B10: GLP#5 (peptide)
peptide: HSEGTFTSDVSSYLEEQAAKEFIAWLVKGGG
As for B10, in the assay with GLP-1 acceptor [1], the “EC50, cAMP accumulation assay … n = 1” value was determined as 7.52 pM.

B11: GLP#8 (peptide)
peptide: HGEGTFTSDVSSYLEEQAAKEFIAWLVRGRG
As to B11, the “EC50 … Transient cell line, n = 2” value with GLP-1 acceptor [1] amounted to 1.95 pM.

B12: GLP#9 (peptide)
peptide: HGEGTFTSDVSSYLEEQAAKEFIAWLVKGGG
modifications: ends and bridges not checked
Take B12: in the assay with GLP-1 acceptor [1], the “EC50, cAMP accumulation assay; Stable cell line, n = 4” value amounted to 2.08 pM and the “EC50, cAMP accumulation assay; Transient cell line, n = 3” value (from here on “EC50, cAMP accumulation assay … n = 3”) was found to be 0.71 pM.

B13: FGF#5 (ligand)
chain: HPIPDSSPLLQFGGQVRQVYLYTDDAQQTEAHLEIREDGTVGGAADQSPESLLQLKALKPGVIQILGVKTSRFLCQRPDGALYGSLHFDPEACSFREDLKEDGYNVYQSEAHGLPLHLPGNKSPHRDPAPRGPARFLPLPGLPPALPEPPGILAPQPPDVGSSDPLSMVEGSQGRSPSYES
In the case of B13, the “EC50, FGFR1/KLB functional assay; n = 2” value in the assay with FGFR1/KLB acceptor was 22300 pM.

B14: FGF#9 (ligand)
chain: HPIPDSSPLLQFGGQVRQVYLYTDDAQQTEAHLEIREDGTVGGAADQSPESLLQLKALKPGVIQILGVKTSRFLCQRPDGALYGSLHFDPEACSFRERLLEDGYNVYQSEAHGLPLHLPGNKSPHRDPAPRGPARFLPLPGLPPALPEPPGILAPQPPDVGSSDPLSMVEGSQGRSPSYES
Consider B14, for which the “EC50, FGFR1/KLB functional assay; n = 2” value in the assay with FGFR1/KLB acceptor amounted to 19100 pM.

B15: GIP#1 (peptide)
peptide: YGEGTFISDYSIAMDKIHQQDFVNWLLAQKGKKNDWKHNITQ
Take B15: in the assay with GIP acceptor, the “EC50, cAMP accumulation assay … n = 3” value was 17.5 pM.

B16: GIP#7 (peptide)
peptide: YGEGTFISDYSIAMDKIRQQDFVNWLLAQKGKKNDWKHNITQ
As to B16, the “EC50, cAMP accumulation assay … n = 1” value in the assay with GIP acceptor was 76.9 pM.

B17: GIP#5 (peptide)
peptide: FSEGTFISDYSIAMDKIHQQDFVNWLLAQKGKKNDWKHNITQ
Consider B17, for which the “EC50, cAMP accumulation assay … n = 1” value with GIP acceptor is 81.9 pM.

B18: GIP#2 (peptide)
peptide: YSEGTFISDYSIAMDKIHQQDFVNWLLAQKGKKNDWKHNITQ
For B18, in the assay with GIP acceptor, the “EC50, cAMP accumulation assay; Stable cell line, n = 2” value was found to be 12 pM and the “EC50, cAMP accumulation assay … n = 3” value was 6.63 pM.
